# According to the RNAGym collection of RNA variant scans (doi:10.7554/elife.80360):
# B1: Hairpin Ribozyme (parent)
# chain: GUCCUCUUUCACGUGCGCGUGAAAGAGAGAAGUGAACCAGAGAAACACACGUUGUGGUAUAUUACCUGGUA
# Variants of: B1
# Assay: self-cleavage, relative activity (ratio to wild type); higher = more cleavage; co-transcriptional
row,Variant,self-cleavage
1,U33C U53A,0.198
2,A35U U62A,0.158
3,G34A G56A,0.252
4,A35G C46G,0.0878
5,A35G C46U,0.145
6,G34C A44U,0.119
7,G34C A44G,0.264
8,A35G C66U,0.553
9,A35U A71C,1.57
10,A35G C48U,0.132
11,G34U C65A,1.57
12,G34U C65U,1.3
13,G34A A44U,0.113
14,U33G A39U,0.0926
15,U33G A39G,0.119
16,A35C A39C,0.226
17,A35C A39G,0.591
18,G34U G56A,0.788
19,U33C U52G,0.1
20,U33C U52A,0.162
21,G34A U53A,1.46

row,Variant,self-cleavage
1,G34A U53C,1.13
2,A35C U55C,0.0658
3,U33C U55G,0.418
4,U33C G34A,0.142
5,U33C G34C,1.28
6,U33A G69U,0.134
7,U33A G69C,0.124
8,U33A G69A,0.0983
9,A35G U52A,1.02
10,G34U A36U,1.52
11,U33G G56A,0.221
12,U33A U63C,0.0601
13,G34U U62A,0.981
14,G34U A44U,0.205
15,G34U A44G,0.348
16,G34U U52A,1.5
17,G34C G68A,0.723
18,A35G C37A,0.416
19,A35G C37G,0.422
20,A35C G68A,0.279
21,A35C G68C,0.145

row,Variant,self-cleavage
1,A35G A49U,0.174
2,G34U G54U,1.26
3,G34U G54C,1.15
4,G34A C38U,0.655
5,G34A C48A,0.122
6,G34A C48G,0.17
7,U33A U60G,0.0384
8,U33A U60C,0.263
9,G34U U63C,0.589
10,G34U U63G,0.261
11,U33G U53A,0.138
12,G34U G40U,0.7
13,U33G G57U,0.2
14,U33C G56U,0.26
15,U33C C66A,0.0633
16,G34A C50G,0.481
17,U33C A71G,0.241
18,U33C A71C,0.63
19,U33G A61C,0.041
20,A35U U53G,0.429
21,A35U U53C,1.04

row,Variant,self-cleavage
1,A35C G51U,1.24
2,G34A G40U,0.198
3,G34A G40A,0.407
4,U33A U55C,0.149
5,G34C U52A,1.66
6,A35G G54A,0.477
7,A35C C66A,0.293
8,A35C C66G,0.159
9,G34A A35C,1.43
10,G34A A35G,1.1
11,A35C U58A,0.841
12,A35C U58G,0.954
13,G34C G42A,0.968
14,G34C G42C,0.907
15,A35C G40C,0.184
16,A35C U52C,1.05
17,A35C U52G,0.728
18,U33G A43C,0.0935
19,U33G A43U,0.0768
20,A35G A64U,0.129
